Among the data in article PMC7618510 are percent of molecules with a single bleaching step, percent of molecules with three or four bleaching steps and percent of molecules with two bleaching steps values, retold here.

Some results are limits rather than exact numbers.

The assay has as its target T1, HA-Halo-MRAP2 (human), Q96G30.
T1 chain: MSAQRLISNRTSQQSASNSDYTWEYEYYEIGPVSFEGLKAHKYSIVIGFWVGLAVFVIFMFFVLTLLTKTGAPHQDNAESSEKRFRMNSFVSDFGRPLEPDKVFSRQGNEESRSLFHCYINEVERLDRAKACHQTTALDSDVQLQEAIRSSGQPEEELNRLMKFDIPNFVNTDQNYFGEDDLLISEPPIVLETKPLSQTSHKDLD
The experiment in a line: single-molecule pull-down (SiMPull) with photobleaching step counting; one colour: HEK293 cells expressing the HA-Halo-tagged protein alone, labelled at the surface with membrane-impermeable CA-Sulfo646, lysed in 0.5% LMNG/0.05% CHS, immobilised by the HA tag on slides with biotinylated HA antibody, single molecules imaged by TIRF. The conditions noted are these: remark: other sources report otherwise.

B1: HA-Halo-MRAP2, Q96G30 1-205 (natural protein)
chain: T1 chain
modifications: here or on the partner: CA-Sulfo646 dye on the Halo tag; CA-Sulfo646 dye on the Halo tag
The molecule B1 returned a percent of molecules with a single bleaching step of 68%, a percent of molecules with three or four bleaching steps of less than 5% and a percent of molecules with two bleaching steps of 28%.
